Data on three molecules can be found in paper PMC11205783, “HigA2 (Rv2021c) Is a Transcriptional Regulator with Multiple Regulatory Targets in Mycobacterium tuberculosis”.

Sequences and labels used below:
T1: HigA2 (Mycobacterium tuberculosis H37Rv, UniProt O53467 1-101)
T1 sequence: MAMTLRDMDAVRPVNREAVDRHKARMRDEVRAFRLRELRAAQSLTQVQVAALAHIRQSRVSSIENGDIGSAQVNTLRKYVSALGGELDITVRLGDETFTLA

B1: seq6 m4 (dsDNA)
DNA 1: CGCTGCTCTTACCCGGAGGAATATCACAGGTCCGTGATATCGCGTATCGCGCTACTCTG
DNA 2: CAGAGTAGCGCGATACGCGATATCACGGACCTGTGATATTCCTCCGGGTAAGAGCAGCG
B2: seq6 m5 (dsDNA)
DNA 1: CTGCTCAAAGATCGACTAGTATATCACAGGTCCGTGATATGACGTATACCTTTGGTGCA
DNA 2: TGCACCAAAGGTATACGTCATATCACGGACCTGTGATATACTAGTCGATCTTTGAGCAG
B3: seq6 m6 (dsDNA)
DNA 1: CGCTGCTCTTACCCGGAGGAGCATCACCCTTGTGTGATCACGCGTATCGCGCTACTCTG
DNA 2: CAGAGTAGCGCGATACGCGTGATCACACAAGGGTGATGCTCCTCCGGGTAAGAGCAGCG

The data set has as its target T1, HigA2. Briefly: EMSA; EMSA: 20 mM Tris-HCl, 150 mM NaCl, pH 8.0, 37 °C, 5 min, HigA2 1 uM (titrated in Fig 4); agarose or native PAGE. Pull-down: streptavidin beads, 4 °C, PBS washes. To be noted: protein: recombinant; tags: C-terminal 6xHis; chain copies: 2. (In EMSA bound probe runs differently from free probe, usually more slowly.)
B1: the binding result is “binds”. For B2 the value was “binds”; for B3, “binds”.
